Measurements reported in patent US20200157212A1 (Pfizer, published 2020).

T1: Terbium (Tb) labeled-SNAP tagged ROBO2 expressed on HEK293 cells (Homo sapiens (Human), UniProt Q9HCK4 22-1378, terbium label on the SNAP tag)
T1 construct: also called Tb-labeled ROBO2 cells; ROBO2 expressing cells; not shown: SNAP tag
T1 sequence: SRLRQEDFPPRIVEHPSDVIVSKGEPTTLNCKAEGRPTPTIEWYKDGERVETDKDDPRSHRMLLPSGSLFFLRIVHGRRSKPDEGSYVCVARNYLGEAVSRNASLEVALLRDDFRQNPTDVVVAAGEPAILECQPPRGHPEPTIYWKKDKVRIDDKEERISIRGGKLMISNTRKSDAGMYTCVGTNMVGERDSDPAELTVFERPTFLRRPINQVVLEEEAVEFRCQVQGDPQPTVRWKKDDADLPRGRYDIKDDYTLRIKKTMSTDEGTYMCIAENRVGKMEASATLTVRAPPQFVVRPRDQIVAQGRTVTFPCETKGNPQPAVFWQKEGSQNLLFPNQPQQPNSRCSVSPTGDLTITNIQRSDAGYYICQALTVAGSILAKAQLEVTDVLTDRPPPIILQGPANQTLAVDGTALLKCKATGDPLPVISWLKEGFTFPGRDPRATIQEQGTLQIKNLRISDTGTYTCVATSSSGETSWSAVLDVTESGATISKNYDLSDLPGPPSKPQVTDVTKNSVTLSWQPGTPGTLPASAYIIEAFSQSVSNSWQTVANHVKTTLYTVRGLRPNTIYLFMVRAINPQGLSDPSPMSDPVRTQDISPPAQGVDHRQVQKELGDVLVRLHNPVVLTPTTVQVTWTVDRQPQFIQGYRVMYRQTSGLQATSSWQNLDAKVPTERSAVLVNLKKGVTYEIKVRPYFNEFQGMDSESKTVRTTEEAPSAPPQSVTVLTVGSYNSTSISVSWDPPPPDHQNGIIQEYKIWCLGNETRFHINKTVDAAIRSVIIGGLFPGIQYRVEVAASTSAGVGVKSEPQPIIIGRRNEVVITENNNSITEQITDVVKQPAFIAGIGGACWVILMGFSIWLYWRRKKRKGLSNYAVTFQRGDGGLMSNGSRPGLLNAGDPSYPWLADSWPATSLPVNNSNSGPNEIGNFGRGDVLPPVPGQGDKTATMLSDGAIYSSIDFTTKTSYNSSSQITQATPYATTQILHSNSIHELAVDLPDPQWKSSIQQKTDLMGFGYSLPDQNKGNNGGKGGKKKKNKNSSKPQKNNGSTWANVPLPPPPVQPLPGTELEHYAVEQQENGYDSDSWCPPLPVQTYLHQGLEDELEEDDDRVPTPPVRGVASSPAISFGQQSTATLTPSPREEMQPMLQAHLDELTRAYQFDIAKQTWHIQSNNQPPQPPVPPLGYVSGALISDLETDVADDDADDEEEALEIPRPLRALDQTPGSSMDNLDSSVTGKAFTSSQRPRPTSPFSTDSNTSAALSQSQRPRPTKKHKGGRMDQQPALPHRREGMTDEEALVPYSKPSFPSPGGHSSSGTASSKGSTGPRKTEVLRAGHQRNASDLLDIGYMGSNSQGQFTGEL


What was measured:
[1] = biological target: T1, Terbium (Tb) labeled-SNAP tagged ROBO2 …; assay: HTRF competition, competitor d2-SLIT2-N, ROBO2 HEK293 cells
Description: (§1) Antibodies generated as a result of the affinity maturation campaign were screened by numerous assays for neutralization of SLIT2-N binding, selective binding to ROBO2 over ROBO1, and inhibition of SLIT2-N functional activity (see Table 2). A ROBO2-SLIT2-N homogenous time resolved fluorescence (HTRF) assay was used to identify antibodies that were capable of blocking SLIT2-N binding to ROBO2. In this assay, terbium (Tb) labeled-SNAP tagged ROBO2 expressing HEK293 cells were incubated with 5 nM d2-labeled SLIT-2N in the presence of 1 nM anti-ROBO2 antibodies for 1 hour. After incubation, fluorescence at 665 nm and 620 nm was measured on an Envision multilabel plate reader. […] Maximal signal was defined as the HTRF ratio of Tb-labeled ROBO2 cells with d2-labeled SLIT2-N in the absence of antibody, the minimum signal was defined as the HTRF ratio of Tb-labeled ROBO2 expressing HEK293 cells only. One nanomolar (nM) parental antibody, 93H2, was unable to block the HTRF assay, therefore this concentration was selected to identify clones with a higher affinity than 93H2 (Table 2, HTRF Ratio column). […] Antibodies derived from chain (Abcs series) or CDR shuffling (CTIR-2 series) were evaluated in 11-point, 5-fold dilution series with a top concentration of 1500 nM (Table 2 HTRF IC₅₀).

[2] = biological target: T1, Terbium (Tb) labeled-SNAP tagged ROBO2 …; assay: HTRF, 5 nM d2-SLIT2-N on Tb-SNAP-ROBO2 HEK293 cells, 1 nM antibody
Description: as §1, with “In” for “Antibodies generated as a result of the affinity maturation campaign were screened by numerous assays for neutralization of SLIT2-N binding, selective binding to ROBO2 over ROBO1, and inhibition of SLIT2-N functional activity (see Table 2). A ROBO2-SLIT2-N homogenous time resolved fluorescence (HTRF) assay was used to identify antibodies that were capable of blocking SLIT2-N binding to ROBO2. In”
HTRF assays were run with 5 nM d2-labeled SLIT2-N and antibodies were added at 1 nM. […] Antibodies derived from chain (Abcs series) or CDR shuffling (CTIR-2 series) were evaluated in 11-point, 5-fold dilution series with a top concentration of 1500 nM, N.T. = not tested; ^cFold selectivity was calculated as Geometric Mean Fluorescent Intensity (Geo MFI) of ROBO2/Geo MFI of ROBO1 binding.

| Binder | IC50 [1] | HTRF Ratio [2] |
| --- | --- | --- |
| CTIR2-1 (antibody, human IgG1, kappa, V domains shown, CDR-shuffled IgG) VH: EVQLVQSGAEVKKPGASVKVSCKASGYTFTGYYMHWVRQAPGQGLEWMGWINPRSGATNFPQKFQGRVTMTRDTSITTAYMDLSRLRSDDTAVYYCARESGDDAFDIWGQGTMVTVSS VL: DIVMTQSPSSLSASVGDRVTITCRASQSISSYLNWYQQKPGKAPKLLIYAASSLQYGVPSRFSGSGSGTDFTLTISSLQPEDFATYYCQQSLELGFGGGTKVEIKR | 0.159 nM | 4540 |
| CTIR2-3 (antibody, human IgG1, kappa, V domains shown, CDR-shuffled IgG) VH: EVQLVQSGAEVKKPGASVKVSCKASGYTFTGYYMHWVRQAPGQGLEWMGWINPRSGATNFPQKFQGRVTMTRDTSITTAYMDLSRLRSDDTAVYYCARESGDDAFDIWGQGTMVTVSS VL: DIVMTQSPSSLSASVGDRVTITCRASQSISSYLNWYQQKPGKAPKLLIYAASSLQYGVPSRFSGSGSGTDFTLTISSLQPEDFATYYCQQSVGLFFGGGTKVEIKR | 0.154 nM | 4050 |
| CTIR2-4 (antibody, human IgG1, kappa, V domains shown, CDR-shuffled IgG) VH: EVQLVQSGAEVKKPGASVKVSCKASGYTFTGYYMHWVRQAPGQGLEWMGWINPKSGATNFPQKFQGRVTMTRDTSITTAYMDLSRLRSDDTAVYYCARESGDDAFDIWGQGTMVTVSS VL: DIVMTQSPSSLSASVGDRVTITCRASQKISSYLNWYQQKPGKAPKLLIYAASSLQYGVPSRFSGSGSGTDFTLTISSLQPEDFATYYCQQSYSTSFGGGTKVEIKR | 0.38 nM | 6170 |
| CTIR2-2 (antibody, human IgG1, kappa, V domains shown, CDR-shuffled IgG) VH: EVQLVQSGAEVKKPGASVKVSCKASGYTFTGYYMHWVRQAPGQGLEWMGWINPRSGATNFPQKFQGRVTMTRDTSITTAYMDLSRLRSDDTAVYYCARESGDDAFDIWGQGTMVTVSS VL: DIVMTQSPSSLSASVGDRVTITCRASQSISSYLNWYQQKPGKAPKLLIYAASSLQYGVPSRFSGSGSGTDFTLTISSLQPEDFATYYCQQSVGLSFGGGTKVEIKR | 0.109 nM | 4330 |

Results, then the binder that gave them:

| IC50 [1] | HTRF Ratio [2] | Binder |
| --- | --- | --- |
| 0.182 nM | 4780 | CTIR2-11 (antibody, human IgG1, kappa, V domains shown, CDR-shuffled IgG) VH: EVQLVQSGAEVKKPGASVKVSCKASGYTFRGYAMHWVRQAPGQGLEWMGWIDPRTGLTKFPQKFQGRVTMTRDTSITTAYMDLSRLRSDDTAVYYCARESGDDAFDIWGQGTMVTVSS VL: not shown |
| 0.108 nM | 3860 | CTIR2-8 (antibody, human IgG1, kappa, V domains shown, CDR-shuffled IgG) VH: EVQLVQSGAEVKKPGASVKVSCKASGYTFTGYYMHWVRQAPGQGLEWMGWINPKSGATNFPQKFQGRVTMTRDTSITTAYMDLSRLRSDDTAVYYCARESGDDAFDIWGQGTMVTVSS VL: DIVMTQSPSSLSASVGDRVTITCRASQKISSYLNWYQQKPGKAPKLLIYAASSLQYGVPSRFSGSGSGTDFTLTISSLQPEDFATYYCQQSVGLSFGGGTKVEIKR |
| 0.165 nM | 5180 | CTIR2-5 (antibody, human IgG1, kappa, V domains shown, CDR-shuffled IgG) VH: EVQLVQSGAEVKKPGASVKVSCKASGYTFTGYYMHWVRQAPGQGLEWMGWINPKSGATNFPQKFQGRVTMTRDTSITTAYMDLSRLRSDDTAVYYCARESGDDAFDIWGQGTMVTVSS VL: DIVMTQSPSSLSASVGDRVTITCRASQKISSYLNWYQQKPGKAPKLLIYAASSLQSGVPSRFSGSGSGTDFTLTISSLQPEDFATYYCQQSLELGFGGGTKVEIKR |
| 0.136 nM | 3670 | CTIR2-7 (antibody, human IgG1, kappa, V domains shown, CDR-shuffled IgG) VH: EVQLVQSGAEVKKPGASVKVSCKASGYTFTGYYMHWVRQAPGQGLEWMGWINPKSGATNFPQKFQGRVTMTRDTSITTAYMDLSRLRSDDTAVYYCARESGDDAFDIWGQGTMVTVSS VL: DIVMTQSPSSLSASVGDRVTITCRASQKISSYLNWYQQKPGKAPKLLIYAASSLQYGVPSRFSGSGSGTDFTLTISSLQPEDFATYYCQQSLELGFGGGTKVEIKR |
| 0.076 nM | 4580 | CTIR2-12 (antibody, human IgG1, kappa, V domains shown, CDR-shuffled IgG) VH: EVQLVQSGAEVKKPGASVKVSCKASGYTFRGYAMHWVRQAPGQGLEWMGWIDPRTGLTKFPQKFQGRVTMTRDTSITTAYMDLSRLRSDDTAVYYCARESGDDAFDIWGQGTMVTVSS VL: DIVMTQSPSSLSASVGDRVTITCRASQKISSYLNWYQQKPGKAPKLLIYAASSLQSGVPSRFSGSGSGTDFTLTISSLQPEDFATYYCQQSYSTSFGGGTKVEIKR |
